Test results reported in publication PMC2944808 (2010).

Molecular target: T1, CHRD_VWC2 (Mus musculus (Mouse), UniProt Q9Z0E2)
T1 chain: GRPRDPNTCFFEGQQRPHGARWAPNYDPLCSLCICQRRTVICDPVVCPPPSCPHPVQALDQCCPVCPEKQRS
Assay: SPR, chordin VWC immobilised

B1: CV2 (protein)
chain: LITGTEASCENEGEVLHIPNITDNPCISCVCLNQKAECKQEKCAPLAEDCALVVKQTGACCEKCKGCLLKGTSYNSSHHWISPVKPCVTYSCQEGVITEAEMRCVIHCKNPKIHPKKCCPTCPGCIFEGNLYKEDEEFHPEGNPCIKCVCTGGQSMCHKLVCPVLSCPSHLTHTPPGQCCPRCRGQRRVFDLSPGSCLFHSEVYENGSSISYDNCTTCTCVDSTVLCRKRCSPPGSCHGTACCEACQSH
B1 gave a Kd of 145 nM.
